Test results reported in patent US20210147541A1 (Kyowa Kirin, published 2021).

T1: mouse CADM3 (mouse, UniProt Q99N28 23-396)
T1 construct: Full-length gene expressed transiently on Expi293F cells; also called mouse CADM3/Expi293F cells; Mouse CADM3-expressing cells
T1 sequence: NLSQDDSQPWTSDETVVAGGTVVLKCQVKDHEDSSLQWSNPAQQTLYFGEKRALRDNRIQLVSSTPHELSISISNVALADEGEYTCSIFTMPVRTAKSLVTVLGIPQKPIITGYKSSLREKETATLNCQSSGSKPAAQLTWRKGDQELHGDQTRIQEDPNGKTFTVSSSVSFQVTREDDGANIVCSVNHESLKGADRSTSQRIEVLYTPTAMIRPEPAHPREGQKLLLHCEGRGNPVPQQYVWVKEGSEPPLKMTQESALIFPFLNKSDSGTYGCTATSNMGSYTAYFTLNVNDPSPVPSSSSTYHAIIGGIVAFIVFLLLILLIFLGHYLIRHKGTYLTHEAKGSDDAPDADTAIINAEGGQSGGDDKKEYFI

T2: human CADM3 (human, UniProt Q8N126 25-398)
T2 construct: Full-length gene expressed transiently on Expi293F cells; also called cell adhesion molecule 3; human CADM3/Expi293F cells
T2 sequence: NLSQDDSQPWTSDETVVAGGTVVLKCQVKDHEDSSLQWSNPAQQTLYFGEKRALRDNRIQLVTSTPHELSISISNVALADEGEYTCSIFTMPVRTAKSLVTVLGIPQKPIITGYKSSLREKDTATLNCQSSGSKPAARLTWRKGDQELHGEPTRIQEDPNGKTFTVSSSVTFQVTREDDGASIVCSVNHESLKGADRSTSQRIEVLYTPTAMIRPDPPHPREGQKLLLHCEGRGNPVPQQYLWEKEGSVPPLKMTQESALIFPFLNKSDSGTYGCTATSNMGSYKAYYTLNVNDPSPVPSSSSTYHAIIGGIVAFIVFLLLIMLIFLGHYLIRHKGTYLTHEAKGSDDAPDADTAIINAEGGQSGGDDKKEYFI

B1: CADM3312 hG4PE(R409K) (antibody, V domains shown)
VH: QLQLQESGPGLVKPSETLSLTCSVSGGSIRGHYWSWIRQPPGKGLEWMGYINHIGSAAYNPSLKSRVTISVDTSKNQFSLKLSSVTAADTAVYYCARMGPWWELDYWGQGTLVTVSS
VL: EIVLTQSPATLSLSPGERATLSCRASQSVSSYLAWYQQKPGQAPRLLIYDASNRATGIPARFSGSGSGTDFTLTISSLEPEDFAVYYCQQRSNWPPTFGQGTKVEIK
notes: Human IgG4 variant (S228P, L235E, R409K), vector pCI-hKG4PE(R409K)
B2: CADM3102 scFv-hG4PE (Fc fusion)
VH: QMQLVQSGAEVKKPGSSVKVSCKASGGTFSSYAISWVRQAPGQGLEWMGGIIPMSGTANYAQKFQGRVTITADESTSTAYMELSSLRSEDTAVYYCARVEESGWYDHYHGMDVWGQGTTVTVSS
VL: DVVMTQSPLSLPVTPGEPASISCTSSQSLLYSNGFNYLDWYLQKPGQSPQLLIYLGSNRASGVPDRFSGSGSGTDFTLKISRVEAEDVGVYYCMQALTTHPTFGGGTKVDIK
notes: also called anti-CADM3 scFv-Fc antibody
B3: iCADM3_3R1-L11 VHH-hG4PE(R409K) (Fc fusion)
chain: QVQLVESGGGLVQAGGSLRLSCAASGSIFSFNAMGWYRQAPGKQRGLVAVITSGGYTNYADSVKGRFTITRDNAKNTVYLQMNSLKPEDTAVYYCNAEGVYSDYVIMNYWGQGTQVTVSS
notes: VHH-Fc antibody; also called anti-CADM3 VHH-Fc antibody iCADM3_3R1-L11; not shown: Hinge-CH2-CH3 region of the human IgG4 heavy chain constant region (IgG4 variant)
B4: iCADM3_3R1-L10 VHH-hG4PE(R409K) (Fc fusion)
chain: QVQLVESGGGLVQAGGSLRLSCAASGSIFSIHAMGWYRQAPGKQRELVATVTSGGSTNYADSVKGRFTISRDNAKNTVYLQMNSLKPEDTAVYYCNAETPYYSSTYYTNYWGQGTQVTVSS
notes: VHH-Fc antibody; also called anti-CADM3 VHH-Fc antibody iCADM3_3R1-L10; not shown: Hinge-CH2-CH3 region of the human IgG4 heavy chain constant region (IgG4 variant)
B5: CADM3309 hG4PE(R409K) (antibody, V domains shown)
VH: EVQLVQSGAEMKKPGSSVKLSCKFSGGDFRSYPISWVRQAPGQGLEWMGGIIPIFSRVNYAQRFLGRITITADESTSTAYMELRSLTSDDTAVYYCATDTPSGYNSPYYYKGMDVWGQGTLVTVSS
VL: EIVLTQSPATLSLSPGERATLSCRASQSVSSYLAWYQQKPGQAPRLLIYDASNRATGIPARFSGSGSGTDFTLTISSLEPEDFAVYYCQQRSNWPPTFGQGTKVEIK
notes: as for B1
B6: CADM3219 hG4PE(R409K) (antibody, V domains shown)
VH: QVQLVQSGAEVKKPGASVKVSCKASGYSFTGYYIHWVRQAPGQGLEWMGRINPNSGGTTYAPKFQGRFTMTRDTSTTTVYLELSGLRSEDTAVYYCARVLERQGRPFEADAFDIWGQGTMVTVSS
VL: not shown
notes: as for B1
B7: CADM3301 hG4PE(R409K) (antibody, V domains shown)
VH: QMQLVQSGAEVKKPGSSVKVSCKASGGTFNNYAISWVRQAPGQGLEWMGGNIPLSGTPKYAQKFQGRITMTADKSTSTEYMELSSLTSEDTAVYYCARDTPSGYNSPYYYKGMDVWGQGTMVTVSS
VL: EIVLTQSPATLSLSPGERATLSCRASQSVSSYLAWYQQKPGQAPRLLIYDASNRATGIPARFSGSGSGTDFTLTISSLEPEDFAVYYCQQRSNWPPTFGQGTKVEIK
notes: as for B1
B8: CADM301 scFv-hG4PE (Fc fusion)
VH: QVQLVQSGAEVRRPGTSVKVSCKASGYSFTSYDINWVRLATGQGLEWMGWMNPNTGDTGSPQKFQDRVTMTRDISTGTAYLELRGLKSEDTAIYYCARGFLVTAYTAEFFPHWGQGTLVTVSS
VL: SYVLTQPPSVSVAPGKTARLTCGGNNIGSKSVHWYQQRPGQAPVLVINYDSDRPSGIPERFSGSNSENTATLTISRVEAGDEADYYCQVWDSGSDHVVFGGGTQLIIL
notes: as for B2
B9: iCADM3_3R1-L5 VHH-hG4PE(R409K) (Fc fusion)
chain: QVQLVESGGGLVQAGGSLRLSCAASGSIVSVNAMGWYRQAPGKQRELVATITSGGSTNYADSAKGRFTISRDNAKNTMYLQMNSLKPEDTAVYYCNGEFWSRRDTRPPGVVNYWGQGTQVTVSS
notes: VHH-Fc antibody; also called anti-CADM3 VHH-Fc antibody iCADM3_3R1-L5; not shown: Hinge-CH2-CH3 region of the human IgG4 heavy chain constant region (IgG4 variant)

What was measured:
hCADM3-GST = biological target: T3, hCADM3-GST (human); experiment: SPR (Biacore T-100), antibody captured, hCADM3-GST as analyte
T3 construct: also called extracellular domain of human CADM3 to which GST was added at the C-terminal side; human CADM3-GST
Description: (§1) The affinity of the anti-CADM3 antibodies produced in Example 2 for human CADM3 and mouse CADM3 was measured using Biacore T-100 (GE Healthcare). Each of the antibodies was immobilized on a […] sensor chip using a Human antibody Capture kit, and the binding ability was evaluated using hCADM3-GST and mCADM3-GST produced in Example 4 as analytes.
(§2) The obtained sensorgram was analyzed with BIA evaluation software, and the dissociation constant (KD value) was calculated.

mCADM3-GST = biological target: T4, mCADM3-GST (mouse); experiment: SPR (Biacore T-100), antibody captured, mCADM3-GST as analyte
T4 construct: also called extracellular domain of mouse CADM3 to which GST was added at the C-terminal side; mouse CADM3-GST
Description: as §1, §2

mouse CADM3 = biological target: T1, mouse CADM3; experiment: flow cytometry, 10 ug/mL, mouse CADM3/Expi293F vs parent Expi293F cells
human CADM3 = biological target: T2, human CADM3; experiment: flow cytometry, 10 ug/mL, human CADM3/Expi293F vs parent Expi293F cells
Description: By using the cells, the reactivity of the antibodies produced in Example 2 with the CADM3-expressing cells was analyzed by a fluorescence activated cell sorting (FACS) method according to the following procedure.
After washing with SB, the cells were suspended in SB, and the fluorescence intensity of each cell was measured using a flow cytometer FACS CANTO II (manufactured by Becton, Dickinson and Company). Note that as a negative control, 10 μg/mL of the anti-AVM antibody was used.
The detection results were analyzed, and a mean fluorescence intensity (MFI) was calculated using a geometric mean. Further, with respect to the MFI when the concentration of each antibody was 10 μg/mL, the ratio of the MFI (mean fluorescence intensity ratio) between the human CADM3/Expi293F cells and the Expi293F cells (parent cell line) was calculated.

| Binder | binding result (hCADM3-GST) | binding result (mCADM3-GST) | Mean fluorescence intensity ratio (mouse CADM3) | Mean fluorescence intensity ratio (human CADM3) |
| --- | --- | --- | --- | --- |
| B1 | binds | binds | 31.6 | 34.4 |
| B2 | binds | binds | 42.6 | 52.3 |
| B3 | binds | binds | 35.5 | 32.2 |
| B4 | binds | binds | 8.87 | 37.5 |
| B5 | binds | binds | 12.5 | 10.2 |
| B6 | binds | binds | 9.2 | 7.3 |
| B7 | binds | binds | 6.2 | 6 |
| B8 | binds | binds | 8.08 | 4.22 |
| B9 | binds | binds | 4.21 | 25.1 |
